Assay results: article PMC5391958, “New function of aldoxime dehydratase: Redox catalysis and the formation of an expected product” (PLoS ONE, 2017)

Columns and labels:
Experiment in all cases: purified protein
Assay type in all cases: biochemical, Pseudomonas chlororaphis
[1] = system: T1, CCn1c(=NN=c2sc3cc(S(=O)(=O)O)ccc3n2CC)sc2cc(S(=O)(=O)O)ccc21; conditions: apparent
T1 construct: recombinant from pET-oxdA (mutants in pET-24a(+)), E. coli BL21-CodonPlus(DE3)-RIL, purified heme enzyme; Mr 40,127; no tag mentioned

[2] = system: T2, COc1ccccc1O; conditions: apparent
T2 construct: recombinant from pET-oxdA (mutants in pET-24a(+)), E. coli BL21-CodonPlus(DE3)-RIL, purified heme enzyme; Mr 40,127; no tag mentioned

[3] = substrate: CCn1c(=NN=c2sc3cc(S(=O)(=O)O)ccc3n2CC)sc2cc(S(=O)(=O)O)ccc21; conditions: apparent, 25 mM H2O2, 100 mM potassium phosphate pH 7.0, 30°C
[4] = substrate: COc1ccccc1O; conditions: apparent, 100 mM H2O2, 100 mM potassium phosphate pH 7.0, 30°C
[5] = 10 mM H2O2, 100 mM potassium phosphate pH 7.0, 30°C
[6] = 25 mM H2O2, 100 mM potassium phosphate pH 7.0, 30°C
[7] = 100 mM H2O2, 100 mM potassium phosphate pH 7.0, 30°C

Which results are given for “OxdA(WT); aldoxime dehydratase (OxdA) (Pseudomonas chlororaphis subsp. chlororaphis; H320A)”?
Km [1, 5]: 210 ± 30 µM; Vmax [1, 5]: 1.3 µmol/min/mg; kcat [1, 5]: 0.85 ± 0.07 s⁻¹; kcat/Km [1, 5]: 4000 M⁻¹ s⁻¹; Km [2, 6]: 840 ± 170 µM; Vmax [2, 6]: 1.2 µmol/min/mg; kcat [2, 6]: 0.81 ± 0.05 s⁻¹; kcat/Km [2, 6]: 970 M⁻¹ s⁻¹

For “OxdA(WT); aldoxime dehydratase (OxdA) (Pseudomonas chlororaphis subsp. chlororaphis; H320D)”, which Km [1, 6] is on record?
Its Km is 120 ± 20 µM.

And the Vmax [1, 6]?
The Vmax was 33 µmol/min/mg.

And the kcat [1, 6]?
The kcat was 22 ± 1 s⁻¹.

And the kcat/Km [1, 6]?
The kcat/Km was 190000 M⁻¹ s⁻¹.

And the Km [2, 7]?
Its Km is 1000 ± 400 µM.

What about the Vmax [2, 7] of the same molecule?
Its Vmax is 50 µmol/min/mg.

What about the kcat [2, 7] of the same molecule?
Its kcat is 33 ± 3 s⁻¹.

And the kcat/Km [2, 7]?
The kcat/Km was 32000 M⁻¹ s⁻¹.

B1: OxdA(WT); aldoxime dehydratase (OxdA) (Pseudomonas chlororaphis subsp. chlororaphis) (protein)
chain: MESAIDTHLKCPRTLSRRVPEEYQPPFPMWVARADEQLQQVVMGYLGVQYRGEAQREAALQAMRHIVSSFSLPDGPQTHDLTHHTDSSGFDNLMVVGYWKDPAAHCRWLRSAEVNDWWTSQDRLGEGLGYFREISAPRAEQFETLYAFQDNLPGVGAVMDSTSGEIEEHGYWGSMRDRFPISQTDWMKPTNELQVVAGDPAKGGRVVIMGHDNIALIRSGQDWADAEAEERSLYLDEILPTLQDGMDFLRDNGQPLGCYSNRFVRNIDLDGNFLDVSYNIGHWRSLEKLERWAESHPTHLRIFVTFFRVAAGLKKLRLYHEVSVSDAKSQVFEYINCHPHTGMLRDAVVAPT
notes: recombinant from pET-oxdA (mutants in pET-24a(+)), E. coli BL21-CodonPlus(DE3)-RIL, purified heme enzyme; Mr 40,127; no tag mentioned
For B1, which Km [3] is on record?
Its Km is 210 ± 40 µM.

And the Vmax [3]?
The Vmax was 3.4 µmol/min/mg.

What about the kcat [3] of the same molecule?
The kcat was 2.3 ± 0.1 s⁻¹.

And the kcat/Km [3]?
Its kcat/Km is 11000 M⁻¹ s⁻¹.

And the Km [4]?
Its Km is 26 ± 10 µM.

And the Vmax [4]?
Its Vmax is 20 µmol/min/mg.

And the kcat [4]?
Its kcat is 14 ± 1 s⁻¹.

And the kcat/Km [4]?
Its kcat/Km is 530000 M⁻¹ s⁻¹.
